Target: Caulobacter crescentus ScsC with a His tag, without signal sequence (Caulobacter crescentus)
Assay: SEC

Substance: Caulobacter crescentus ScsC with a His tag, without signal sequence (natural protein)
- stoichiometry N: 2

— article PMC3322552
